The labels stand for the following.
B1: LINE1-mini (parent)
chain: GGCAGAGCUCAACACAGCGUGGCAAAGUGGCUGUGGCUAGACUGCC

The variants in this data set derive from B1. As to the kind of experiment: self-cleavage, relative activity (ratio to wild type); higher = more cleavage; in vitro, sequencing; the parent is a self-cleaving ribozyme.
In the case of U38G C42U, the self-cleavage was 0.03.

Turning to U38G C42A, the self-cleavage came to 0.03.

In the case of U38G C42G, the self-cleavage was 0.02.

Consider G35C C42U, for which the self-cleavage came to 0.05.

As for G35C C42A, the self-cleavage turned out to be 0.1.

In the case of G35C C42G, the self-cleavage stood at 0.04.

As to U38C, the self-cleavage came to 0.6.

Consider U38G, for which the self-cleavage was found to be 0.03.

For the variant U38A, the self-cleavage came out at 0.47.

In the case of G35C A41C, the self-cleavage was found to be 0.06.

In the case of G35C A41U, the self-cleavage worked out at 0.13.

With G35C A41G, the self-cleavage came to 0.08.

As to G35U A41C, the self-cleavage was found to be 0.08.

Consider G35U A41G, for which the self-cleavage turned out to be 0.08.

With G35U A41U, the self-cleavage is 0.14.

C37A A41U: the self-cleavage was found to be 0.08.

Take C37A A41G: the self-cleavage was found to be 0.12.

On to C37A A41C, for which the self-cleavage came out at 0.03.

Regarding U38A C46U, the self-cleavage came out at 0.3.

Regarding U38A C46A, the self-cleavage came to 0.35.

Take U38A C46G: the self-cleavage came out at 0.38.

With G35C C37A, the self-cleavage is 0.08.

Take G35C C37G: the self-cleavage is 0.09.

With G35C C37U, the self-cleavage came out at 0.03.

G36A C42U: the self-cleavage was 0.15.

As for G36A C42G, the self-cleavage is 0.07.

Consider G36A C42A, for which the self-cleavage is 0.16.

For the variant U38C C46G, the self-cleavage was determined as 0.64.

Consider U38C C46A, for which the self-cleavage was 1.27.

On to U38C C46U, for which the self-cleavage is 0.44.

In the case of G35C U38G, the self-cleavage was 0.02.

In the case of G35C U38A, the self-cleavage was determined as 0.16.

Turning to G35C U38C, the self-cleavage came out at 0.05.

With C37U C42U, the self-cleavage stood at 0.1.

Turning to C37U C42A, the self-cleavage was 0.12.

On to C37U C42G, for which the self-cleavage was 0.03.

For the variant U38G G44A, the self-cleavage came to 0.03.

As for U38G G44C, the self-cleavage was determined as 0.06.

As for C37A C42A, the self-cleavage stood at 0.05.

Take C37A C42U: the self-cleavage came out at 0.16.

In the case of C37A C42G, the self-cleavage stood at 0.06.

Take C37G U43G: the self-cleavage amounted to 0.05.

As to C37G U43C, the self-cleavage turned out to be 0.09.

C37G U43A: the self-cleavage was 0.07.

As to G36U C42A, the self-cleavage was 0.06.

Turning to G36U C42U, the self-cleavage was determined as 0.06.

Regarding G36U C42G, the self-cleavage worked out at 0.03.

For G35U C37G, the self-cleavage worked out at 0.05.

Turning to G35U C37A, the self-cleavage is 0.23.

Regarding G35U C37U, the self-cleavage amounted to 0.06.

On to U38C G44U, for which the self-cleavage is 0.27.

In the case of U38C G44C, the self-cleavage was 0.32.

Regarding U38C G44A, the self-cleavage was 0.3.

Take U38G A41G: the self-cleavage came to 0.14.

On to U38G A41C, for which the self-cleavage came to 0.02.

Take U38G A41U: the self-cleavage amounted to 0.04.

As to G35C A39G, the self-cleavage was determined as 0.09.

In the case of G35C A39U, the self-cleavage came to 0.06.

Regarding G35C A39C, the self-cleavage amounted to 0.13.

As to G36U C45U, the self-cleavage was 0.11.

With G36U C45G, the self-cleavage came to 0.12.

G36U C45A: the self-cleavage is 0.15.

Consider G36A C46G, for which the self-cleavage is 0.34.

Consider G36A C46U, for which the self-cleavage was 0.26.

Regarding G36A C46A, the self-cleavage was determined as 0.14.

Turning to C37G, the self-cleavage was found to be 0.05.

Turning to C37A, the self-cleavage worked out at 0.08.

For C37U, the self-cleavage was determined as 0.07.

For the variant G35C G40U, the self-cleavage turned out to be 0.09.

As for G35C G40C, the self-cleavage amounted to 0.08.

In the case of G35C G40A, the self-cleavage came to 0.1.

Take U38C A39C: the self-cleavage turned out to be 0.1.

Take U38C A39G: the self-cleavage turned out to be 0.06.

For U38C A39U, the self-cleavage stood at 0.7.

On to G35C U43A, for which the self-cleavage came out at 0.11.

With G35C U43G, the self-cleavage worked out at 0.09.

With G35C U43C, the self-cleavage came to 0.12.

As to C37U U38G, the self-cleavage worked out at 0.03.

Regarding C37U U38A, the self-cleavage turned out to be 0.04.

In the case of C37U U38C, the self-cleavage is 0.06.

Consider C37A G44U, for which the self-cleavage is 0.18.

Take C37A G44A: the self-cleavage was found to be 0.13.

For the variant C37A G44C, the self-cleavage turned out to be 0.07.

As to G36C U38C, the self-cleavage worked out at 0.05.

For G36C U38G, the self-cleavage is 0.02.

For G36C U38A, the self-cleavage was 0.06.

As to C37A U43C, the self-cleavage was found to be 0.05.

With C37A U43G, the self-cleavage came to 0.08.

In the case of C37A U43A, the self-cleavage came out at 0.13.

For the variant U38G G40A, the self-cleavage was 0.04.

Turning to U38G G40C, the self-cleavage amounted to 0.03.

On to U38G G40U, for which the self-cleavage was found to be 0.05.

Consider G36A C45U, for which the self-cleavage amounted to 0.8.

Turning to G36A C45A, the self-cleavage turned out to be 0.14.

Consider G36A C45G, for which the self-cleavage was found to be 0.13.

Regarding G35A G36U, the self-cleavage is 0.19.

For G35A G36A, the self-cleavage came out at 0.17.

Regarding G35A G36C, the self-cleavage was determined as 0.17.

For the variant G36U U38A, the self-cleavage stood at 0.05.

With G36U U38C, the self-cleavage worked out at 0.11.

As to G36U U38G, the self-cleavage amounted to 0.02.

Consider U38A A39G, for which the self-cleavage was 0.25.

Take U38A A39C: the self-cleavage amounted to 0.49.

On to U38A A39U, for which the self-cleavage turned out to be 0.85.

With G35C C46G, the self-cleavage came out at 0.06.

As for G35C C46U, the self-cleavage was 0.06.

With G35C C46A, the self-cleavage was 0.1.

As for C37A U38A, the self-cleavage stood at 0.04.

Consider C37A U38C, for which the self-cleavage turned out to be 0.03.

As to C37A U38G, the self-cleavage is 0.03.

As to G36A G40C, the self-cleavage is 0.27.

With G36A G40U, the self-cleavage worked out at 0.47.

As for G36A G40A, the self-cleavage worked out at 0.29.

For U38A G44A, the self-cleavage came out at 0.28.

As for U38A G44C, the self-cleavage came out at 0.09.

On to U38A G44U, for which the self-cleavage was 0.17.

With G35U C46G, the self-cleavage was found to be 0.09.

For the variant G35U C46U, the self-cleavage turned out to be 0.1.

For G35U C46A, the self-cleavage was found to be 0.11.

Regarding C37U G44C, the self-cleavage came out at 0.05.

On to C37U G44U, for which the self-cleavage is 0.25.

For the variant C37U G44A, the self-cleavage was 0.1.

As for G36C U43A, the self-cleavage is 0.08.

For G36C U43C, the self-cleavage was 0.04.

As to G36C U43G, the self-cleavage was 0.

Consider G36A U43G, for which the self-cleavage is 0.01.

G36A U43A: the self-cleavage turned out to be 0.07.

With G36A U43C, the self-cleavage was 0.31.

Consider G36C A41U, for which the self-cleavage is 0.14.

In the case of G36C A41C, the self-cleavage worked out at 0.05.

As for G36C A41G, the self-cleavage is 0.11.

For the variant G36A U38G, the self-cleavage came out at 0.03.

With G36A U38C, the self-cleavage was 0.12.

Consider G36A U38A, for which the self-cleavage came out at 0.08.

On to G35C G44C, for which the self-cleavage worked out at 0.05.

Take G35C G44A: the self-cleavage amounted to 0.09.

With G35C G44U, the self-cleavage worked out at 0.06.

For G36U C37G, the self-cleavage amounted to 0.05.

As for G36U C37U, the self-cleavage is 0.03.

With G36U C37A, the self-cleavage turned out to be 0.05.

In the case of C37U C46G, the self-cleavage is 0.04.

As to C37U C46A, the self-cleavage was 0.07.

As to C37U C46U, the self-cleavage worked out at 0.06.

Take G35U C42G: the self-cleavage worked out at 0.05.

As to G35U C42U, the self-cleavage worked out at 0.11.

In the case of G35U C42A, the self-cleavage was determined as 0.08.

As to U38A C42U, the self-cleavage was 0.21.

U38A C42A: the self-cleavage was 0.1.

As to U38A C42G, the self-cleavage was found to be 0.07.

C37U A39C: the self-cleavage worked out at 0.14.

For the variant C37U A39G, the self-cleavage came out at 0.02.

Consider C37U A39U, for which the self-cleavage amounted to 0.04.

Turning to C37U C45U, the self-cleavage stood at 0.04.

Turning to C37U C45G, the self-cleavage stood at 0.08.

In the case of C37U C45A, the self-cleavage amounted to 0.06.

Consider G36C, for which the self-cleavage was 0.1.

Consider G36A, for which the self-cleavage was determined as 0.2.

In the case of G36U, the self-cleavage came out at 0.08.

Take G36A C37G: the self-cleavage stood at 0.05.

Regarding G36A C37A, the self-cleavage is 0.11.

Consider G36A C37U, for which the self-cleavage amounted to 0.31.

G36C A39U: the self-cleavage amounted to 0.23.

G36C A39G: the self-cleavage was 0.07.

Consider G36C A39C, for which the self-cleavage was found to be 0.05.

In the case of C37G A39C, the self-cleavage is 0.06.

Regarding C37G A39G, the self-cleavage came to 0.02.

C37G A39U: the self-cleavage was determined as 0.08.

The record behind these values is the RNAGym collection of RNA variant scans (doi:10.7554/elife.90254).
